Starred links: 1 amine or outer side, 2 acyl side, 3 side chain; linkers in the order of their positions; H or OH if unused. Non-standard residues stand in square brackets, D forms with d. Groups on a side chain read outwards from the residue. No end group written: not given here. *: point of attachment. γGlu = O=C(O)[C@H](CCC(=O)[*:2])N[*:1]; Palmitoyl = CCCCCCCCCCCCCCCC(=O)*; αMeF = C[C@](N)(Cc1ccccc1)C(=O)O; αMeK = C[C@](N)(CCCCN)C(=O)O; αMeS = C[C@](N)(CO)C(=O)O; Aib = CC(C)(N)C(=O)O
T1: GLP-1R (INS1e assay) (UniProt P32301 22-463, limits assumed)
T1 sequence (looked up): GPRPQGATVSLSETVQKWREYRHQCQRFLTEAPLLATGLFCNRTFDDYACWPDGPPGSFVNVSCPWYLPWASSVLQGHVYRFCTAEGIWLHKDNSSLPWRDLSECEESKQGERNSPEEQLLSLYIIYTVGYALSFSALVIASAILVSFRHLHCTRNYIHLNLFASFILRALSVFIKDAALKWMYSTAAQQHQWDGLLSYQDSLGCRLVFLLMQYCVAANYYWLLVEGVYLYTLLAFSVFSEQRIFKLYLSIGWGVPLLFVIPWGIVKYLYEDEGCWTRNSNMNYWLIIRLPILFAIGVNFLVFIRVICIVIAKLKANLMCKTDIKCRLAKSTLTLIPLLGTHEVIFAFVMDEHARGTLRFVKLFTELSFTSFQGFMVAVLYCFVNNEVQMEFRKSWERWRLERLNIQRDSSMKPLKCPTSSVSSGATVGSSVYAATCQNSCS

B1: SEQ ID NO 82 (peptide)
peptide: H[Aib]EGS[αMeF]TSDV[αMeS]S[αMeF]LEGEK([γGlu-Palmitoyl])A[αMeK]E[αMeF]IA[αMeF]VV[αMeK]GG-NH2
modifications: N-terminus assumed
SMILES: CCCCCCCCCCCCCCCC(=O)N[C@@H](CCC(=O)NCCCC[C@H](NC(=O)[C@H](CCC(=O)O)NC(=O)CNC(=O)[C@H](CCC(=O)O)NC(=O)[C@H](CC(C)C)NC(=O)[C@](C)(Cc1ccccc1)NC(=O)[C@H](CO)NC(=O)[C@](C)(CO)NC(=O)[C@@H](NC(=O)[C@H](CC(=O)O)NC(=O)[C@H](CO)NC(=O)[C@@H](NC(=O)[C@](C)(Cc1ccccc1)NC(=O)[C@H](CO)NC(=O)CNC(=O)[C@H](CCC(=O)O)NC(=O)C(C)(C)NC(=O)[C@@H](N)Cc1c[nH]cn1)[C@@H](C)O)C(C)C)C(=O)N[C@@H](C)C(=O)N[C@@](C)(CCCCN)C(=O)N[C@@H](CCC(=O)O)C(=O)N[C@@](C)(Cc1ccccc1)C(=O)N[C@H](C(=O)N[C@@H](C)C(=O)N[C@@](C)(Cc1ccccc1)C(=O)N[C@H](C(=O)N[C@H](C(=O)N[C@@](C)(CCCCN)C(=O)NCC(=O)NCC(N)=O)C(C)C)C(C)C)[C@@H](C)CC)C(=O)O
B2: SEQ ID NO 79 (peptide)
peptide: H[Aib]EGS[αMeF]TSDV[αMeS]S[αMeF]LEGEAA[αMeK]K([γGlu-Palmitoyl])[αMeF]IA[αMeF]VV[αMeK]GG-NH2
modifications: N-terminus assumed
SMILES: CCCCCCCCCCCCCCCC(=O)N[C@@H](CCC(=O)NCCCC[C@H](NC(=O)[C@](C)(CCCCN)NC(=O)[C@H](C)NC(=O)[C@H](C)NC(=O)[C@H](CCC(=O)O)NC(=O)CNC(=O)[C@H](CCC(=O)O)NC(=O)[C@H](CC(C)C)NC(=O)[C@](C)(Cc1ccccc1)NC(=O)[C@H](CO)NC(=O)[C@](C)(CO)NC(=O)[C@@H](NC(=O)[C@H](CC(=O)O)NC(=O)[C@H](CO)NC(=O)[C@@H](NC(=O)[C@](C)(Cc1ccccc1)NC(=O)[C@H](CO)NC(=O)CNC(=O)[C@H](CCC(=O)O)NC(=O)C(C)(C)NC(=O)[C@@H](N)Cc1c[nH]cn1)[C@@H](C)O)C(C)C)C(=O)N[C@@](C)(Cc1ccccc1)C(=O)N[C@H](C(=O)N[C@@H](C)C(=O)N[C@@](C)(Cc1ccccc1)C(=O)N[C@H](C(=O)N[C@H](C(=O)N[C@@](C)(CCCCN)C(=O)NCC(=O)NCC(N)=O)C(C)C)C(C)C)[C@@H](C)CC)C(=O)O
B3: SEQ ID NO 80 (peptide)
peptide: H[Aib]EGS[αMeF]TSDV[αMeS]S[αMeF]LEGEAAK([γGlu-Palmitoyl])E[αMeF]IA[αMeF]VV[αMeK]GG-NH2
modifications: N-terminus assumed
SMILES: CCCCCCCCCCCCCCCC(=O)N[C@@H](CCC(=O)NCCCC[C@H](NC(=O)[C@H](C)NC(=O)[C@H](C)NC(=O)[C@H](CCC(=O)O)NC(=O)CNC(=O)[C@H](CCC(=O)O)NC(=O)[C@H](CC(C)C)NC(=O)[C@](C)(Cc1ccccc1)NC(=O)[C@H](CO)NC(=O)[C@](C)(CO)NC(=O)[C@@H](NC(=O)[C@H](CC(=O)O)NC(=O)[C@H](CO)NC(=O)[C@@H](NC(=O)[C@](C)(Cc1ccccc1)NC(=O)[C@H](CO)NC(=O)CNC(=O)[C@H](CCC(=O)O)NC(=O)C(C)(C)NC(=O)[C@@H](N)Cc1c[nH]cn1)[C@@H](C)O)C(C)C)C(=O)N[C@@H](CCC(=O)O)C(=O)N[C@@](C)(Cc1ccccc1)C(=O)N[C@H](C(=O)N[C@@H](C)C(=O)N[C@@](C)(Cc1ccccc1)C(=O)N[C@H](C(=O)N[C@H](C(=O)N[C@@](C)(CCCCN)C(=O)NCC(=O)NCC(N)=O)C(C)C)C(C)C)[C@@H](C)CC)C(=O)O
B4: SEQ ID NO 78 (peptide)
peptide: H[Aib]EGS[αMeF]TSDV[αMeS]S[αMeF]LEGEAA[αMeK]EK([γGlu-Palmitoyl])IA[αMeF]VV[αMeK]GG-NH2
modifications: N-terminus assumed
SMILES: CCCCCCCCCCCCCCCC(=O)N[C@@H](CCC(=O)NCCCC[C@H](NC(=O)[C@H](CCC(=O)O)NC(=O)[C@](C)(CCCCN)NC(=O)[C@H](C)NC(=O)[C@H](C)NC(=O)[C@H](CCC(=O)O)NC(=O)CNC(=O)[C@H](CCC(=O)O)NC(=O)[C@H](CC(C)C)NC(=O)[C@](C)(Cc1ccccc1)NC(=O)[C@H](CO)NC(=O)[C@](C)(CO)NC(=O)[C@@H](NC(=O)[C@H](CC(=O)O)NC(=O)[C@H](CO)NC(=O)[C@@H](NC(=O)[C@](C)(Cc1ccccc1)NC(=O)[C@H](CO)NC(=O)CNC(=O)[C@H](CCC(=O)O)NC(=O)C(C)(C)NC(=O)[C@@H](N)Cc1c[nH]cn1)[C@@H](C)O)C(C)C)C(=O)N[C@H](C(=O)N[C@@H](C)C(=O)N[C@@](C)(Cc1ccccc1)C(=O)N[C@H](C(=O)N[C@H](C(=O)N[C@@](C)(CCCCN)C(=O)NCC(=O)NCC(N)=O)C(C)C)C(C)C)[C@@H](C)CC)C(=O)O
B5: SEQ ID NO 84 (peptide)
peptide: H[Aib]EGS[αMeF]TSDV[αMeS]S[αMeF]LEK([γGlu-Palmitoyl])EAA[αMeK]E[αMeF]IA[αMeF]VV[αMeK]GG-NH2
modifications: N-terminus assumed
SMILES: CCCCCCCCCCCCCCCC(=O)N[C@@H](CCC(=O)NCCCC[C@H](NC(=O)[C@H](CCC(=O)O)NC(=O)[C@H](CC(C)C)NC(=O)[C@](C)(Cc1ccccc1)NC(=O)[C@H](CO)NC(=O)[C@](C)(CO)NC(=O)[C@@H](NC(=O)[C@H](CC(=O)O)NC(=O)[C@H](CO)NC(=O)[C@@H](NC(=O)[C@](C)(Cc1ccccc1)NC(=O)[C@H](CO)NC(=O)CNC(=O)[C@H](CCC(=O)O)NC(=O)C(C)(C)NC(=O)[C@@H](N)Cc1c[nH]cn1)[C@@H](C)O)C(C)C)C(=O)N[C@@H](CCC(=O)O)C(=O)N[C@@H](C)C(=O)N[C@@H](C)C(=O)N[C@@](C)(CCCCN)C(=O)N[C@@H](CCC(=O)O)C(=O)N[C@@](C)(Cc1ccccc1)C(=O)N[C@H](C(=O)N[C@@H](C)C(=O)N[C@@](C)(Cc1ccccc1)C(=O)N[C@H](C(=O)N[C@H](C(=O)N[C@@](C)(CCCCN)C(=O)NCC(=O)NCC(N)=O)C(C)C)C(C)C)[C@@H](C)CC)C(=O)O
B6: SEQ ID NO 76 (peptide)
peptide: H[Aib]EGS[αMeF]TSDV[αMeS]S[αMeF]LEGEAA[αMeK]E[αMeF]IK([γGlu-Palmitoyl])[αMeF]VV[αMeK]GG-NH2
modifications: N-terminus assumed
SMILES: CCCCCCCCCCCCCCCC(=O)N[C@@H](CCC(=O)NCCCC[C@H](NC(=O)[C@@H](NC(=O)[C@](C)(Cc1ccccc1)NC(=O)[C@H](CCC(=O)O)NC(=O)[C@](C)(CCCCN)NC(=O)[C@H](C)NC(=O)[C@H](C)NC(=O)[C@H](CCC(=O)O)NC(=O)CNC(=O)[C@H](CCC(=O)O)NC(=O)[C@H](CC(C)C)NC(=O)[C@](C)(Cc1ccccc1)NC(=O)[C@H](CO)NC(=O)[C@](C)(CO)NC(=O)[C@@H](NC(=O)[C@H](CC(=O)O)NC(=O)[C@H](CO)NC(=O)[C@@H](NC(=O)[C@](C)(Cc1ccccc1)NC(=O)[C@H](CO)NC(=O)CNC(=O)[C@H](CCC(=O)O)NC(=O)C(C)(C)NC(=O)[C@@H](N)Cc1c[nH]cn1)[C@@H](C)O)C(C)C)[C@@H](C)CC)C(=O)N[C@@](C)(Cc1ccccc1)C(=O)N[C@H](C(=O)N[C@H](C(=O)N[C@@](C)(CCCCN)C(=O)NCC(=O)NCC(N)=O)C(C)C)C(C)C)C(=O)O
B7: SEQ ID NO 83 (peptide)
peptide: H[Aib]EGS[αMeF]TSDV[αMeS]S[αMeF]LEGK([γGlu-Palmitoyl])AA[αMeK]E[αMeF]IA[αMeF]VV[αMeK]GG-NH2
modifications: N-terminus assumed
SMILES: CCCCCCCCCCCCCCCC(=O)N[C@@H](CCC(=O)NCCCC[C@H](NC(=O)CNC(=O)[C@H](CCC(=O)O)NC(=O)[C@H](CC(C)C)NC(=O)[C@](C)(Cc1ccccc1)NC(=O)[C@H](CO)NC(=O)[C@](C)(CO)NC(=O)[C@@H](NC(=O)[C@H](CC(=O)O)NC(=O)[C@H](CO)NC(=O)[C@@H](NC(=O)[C@](C)(Cc1ccccc1)NC(=O)[C@H](CO)NC(=O)CNC(=O)[C@H](CCC(=O)O)NC(=O)C(C)(C)NC(=O)[C@@H](N)Cc1c[nH]cn1)[C@@H](C)O)C(C)C)C(=O)N[C@@H](C)C(=O)N[C@@H](C)C(=O)N[C@@](C)(CCCCN)C(=O)N[C@@H](CCC(=O)O)C(=O)N[C@@](C)(Cc1ccccc1)C(=O)N[C@H](C(=O)N[C@@H](C)C(=O)N[C@@](C)(Cc1ccccc1)C(=O)N[C@H](C(=O)N[C@H](C(=O)N[C@@](C)(CCCCN)C(=O)NCC(=O)NCC(N)=O)C(C)C)C(C)C)[C@@H](C)CC)C(=O)O

Biological target: T1, GLP-1R (INS1e assay)
Test: cell-based or functional assay

| Binder | INS1e assay EC50 GLP-1 R n1 [nM] | INS1e assay EC50 GLP-1 R n2 [nM] | INS1e assay EC50 Mean pM GLP-1R [pM] |
| --- | --- | --- | --- |
| B1 | 0.151 | 0.238 | 195 |
| B2 | 0.289 | 0.527 | 408 |
| B3 | 3.89 | 1.33 | 2610 |
| B4 | 0.345 | 0.346 | 346 |
| B5 | 0.455 | 0.665 | 560 |
| B6 | 0.326 | 0.531 | 429 |
| B7 | 0.137 | 0.25 | 194 |

— US20200079833A1 (AstraZeneca / MedImmune, published 2020)
